# Measurements as given in patent publication US20260001928A1 (CORTERIA PHARMACEUTICALS, priority 2022, published 2026).
# *1 amine or outer side, *2 acyl side, *3 side chain or, on linkers, in order; H or OH if unused. Where no end group is shown, it is not given here. Side-chain parts run from the residue outwards. [ ]: non-standard residue; d: D form. The star is where a group is joined. C18 diacid = O=C(O)CCCCCCCCCCCCCCCCC(=O)*; C16 diacid = O=C(O)CCCCCCCCCCCCCCC(=O)*; γGlu = O=C(O)[C@H](CCC(=O)[*:2])N[*:1]; NMeI = CC[C@H](C)[C@H](NC)C(=O)O; Pentanoyl = CCCCC(=O)*; AEEA = NCCOCCOCC(=O)O; Aib = CC(C)(N)C(=O)O
# T1: CRF1R receptor (UniProt P34998 24-415, limits assumed)
# T1 sequence (looked up): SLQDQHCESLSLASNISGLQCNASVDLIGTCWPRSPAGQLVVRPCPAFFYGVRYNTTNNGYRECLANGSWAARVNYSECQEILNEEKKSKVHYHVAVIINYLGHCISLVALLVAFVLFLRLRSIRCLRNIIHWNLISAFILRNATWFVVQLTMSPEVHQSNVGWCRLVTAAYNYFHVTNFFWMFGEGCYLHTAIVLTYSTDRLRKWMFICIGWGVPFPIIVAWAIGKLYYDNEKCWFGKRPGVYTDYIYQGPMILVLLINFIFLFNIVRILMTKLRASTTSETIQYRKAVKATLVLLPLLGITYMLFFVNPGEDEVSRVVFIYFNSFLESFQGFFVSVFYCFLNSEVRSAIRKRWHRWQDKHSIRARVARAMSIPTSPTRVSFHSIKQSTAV
# B1: SEQ ID NO 42 (peptide)
# peptide: Ac-IVLSLD[dV]PIKLK([AEEA-AEEA-γGlu-C16 diacid])KILLEQEKQKKQREQAETN[Aib]QILAQV-NH2
# SMILES: CC[C@H](C)[C@H](NC(C)=O)C(=O)N[C@H](C(=O)N[C@@H](CC(C)C)C(=O)N[C@@H](CO)C(=O)N[C@@H](CC(C)C)C(=O)N[C@@H](CC(=O)O)C(=O)N[C@@H](C(=O)N1CCC[C@H]1C(=O)N[C@H](C(=O)N[C@@H](CCCCN)C(=O)N[C@@H](CC(C)C)C(=O)N[C@@H](CCCCNC(=O)COCCOCCNC(=O)COCCOCCNC(=O)CC[C@H](NC(=O)CCCCCCCCCCCCCCC(=O)O)C(=O)O)C(=O)N[C@@H](CCCCN)C(=O)N[C@H](C(=O)N[C@@H](CC(C)C)C(=O)N[C@@H](CC(C)C)C(=O)N[C@@H](CCC(=O)O)C(=O)N[C@@H](CCC(N)=O)C(=O)N[C@@H](CCC(=O)O)C(=O)N[C@@H](CCCCN)C(=O)N[C@@H](CCC(N)=O)C(=O)N[C@@H](CCCCN)C(=O)N[C@@H](CCCCN)C(=O)N[C@@H](CCC(N)=O)C(=O)N[C@@H](CCCNC(=N)N)C(=O)N[C@@H](CCC(=O)O)C(=O)N[C@@H](CCC(N)=O)C(=O)N[C@@H](C)C(=O)N[C@@H](CCC(=O)O)C(=O)N[C@H](C(=O)N[C@@H](CC(N)=O)C(=O)NC(C)(C)C(=O)N[C@@H](CCC(N)=O)C(=O)N[C@H](C(=O)N[C@@H](CC(C)C)C(=O)N[C@@H](C)C(=O)N[C@@H](CCC(N)=O)C(=O)N[C@H](C(N)=O)C(C)C)[C@@H](C)CC)[C@@H](C)O)[C@@H](C)CC)[C@@H](C)CC)C(C)C)C(C)C
# B2: SEQ ID NO 32 (peptide)
# peptide: Pentanoyl-VLSLD[dV]PIKLK([AEEA-AEEA-γGlu-γGlu-C18 diacid])QILLKQERQKKQREQAEKN[Aib]QILEQV-NH2
# SMILES: CCCCC(=O)N[C@H](C(=O)N[C@@H](CC(C)C)C(=O)N[C@@H](CO)C(=O)N[C@@H](CC(C)C)C(=O)N[C@@H](CC(=O)O)C(=O)N[C@@H](C(=O)N1CCC[C@H]1C(=O)N[C@H](C(=O)N[C@@H](CCCCN)C(=O)N[C@@H](CC(C)C)C(=O)N[C@@H](CCCCNC(=O)COCCOCCNC(=O)COCCOCCNC(=O)CC[C@H](NC(=O)CC[C@H](NC(=O)CCCCCCCCCCCCCCCCC(=O)O)C(=O)O)C(=O)O)C(=O)N[C@@H](CCC(N)=O)C(=O)N[C@H](C(=O)N[C@@H](CC(C)C)C(=O)N[C@@H](CC(C)C)C(=O)N[C@@H](CCCCN)C(=O)N[C@@H](CCC(N)=O)C(=O)N[C@@H](CCC(=O)O)C(=O)N[C@@H](CCCNC(=N)N)C(=O)N[C@@H](CCC(N)=O)C(=O)N[C@@H](CCCCN)C(=O)N[C@@H](CCCCN)C(=O)N[C@@H](CCC(N)=O)C(=O)N[C@@H](CCCNC(=N)N)C(=O)N[C@@H](CCC(=O)O)C(=O)N[C@@H](CCC(N)=O)C(=O)N[C@@H](C)C(=O)N[C@@H](CCC(=O)O)C(=O)N[C@@H](CCCCN)C(=O)N[C@@H](CC(N)=O)C(=O)NC(C)(C)C(=O)N[C@@H](CCC(N)=O)C(=O)N[C@H](C(=O)N[C@@H](CC(C)C)C(=O)N[C@@H](CCC(=O)O)C(=O)N[C@@H](CCC(N)=O)C(=O)N[C@H](C(N)=O)C(C)C)[C@@H](C)CC)[C@@H](C)CC)[C@@H](C)CC)C(C)C)C(C)C
# B3: SEQ ID NO 31 (peptide)
# peptide: [NMeI]VLSLD[dV]PIKLK([AEEA-AEEA-γGlu-γGlu-C18 diacid])QILLKQERQKKQREQAEKN[Aib]QILEQV-NH2
# modifications: N-terminus assumed
# SMILES: CC[C@H](C)[C@H](NC)C(=O)N[C@H](C(=O)N[C@@H](CC(C)C)C(=O)N[C@@H](CO)C(=O)N[C@@H](CC(C)C)C(=O)N[C@@H](CC(=O)O)C(=O)N[C@@H](C(=O)N1CCC[C@H]1C(=O)N[C@H](C(=O)N[C@@H](CCCCN)C(=O)N[C@@H](CC(C)C)C(=O)N[C@@H](CCCCNC(=O)COCCOCCNC(=O)COCCOCCNC(=O)CC[C@H](NC(=O)CC[C@H](NC(=O)CCCCCCCCCCCCCCCCC(=O)O)C(=O)O)C(=O)O)C(=O)N[C@@H](CCC(N)=O)C(=O)N[C@H](C(=O)N[C@@H](CC(C)C)C(=O)N[C@@H](CC(C)C)C(=O)N[C@@H](CCCCN)C(=O)N[C@@H](CCC(N)=O)C(=O)N[C@@H](CCC(=O)O)C(=O)N[C@@H](CCCNC(=N)N)C(=O)N[C@@H](CCC(N)=O)C(=O)N[C@@H](CCCCN)C(=O)N[C@@H](CCCCN)C(=O)N[C@@H](CCC(N)=O)C(=O)N[C@@H](CCCNC(=N)N)C(=O)N[C@@H](CCC(=O)O)C(=O)N[C@@H](CCC(N)=O)C(=O)N[C@@H](C)C(=O)N[C@@H](CCC(=O)O)C(=O)N[C@@H](CCCCN)C(=O)N[C@@H](CC(N)=O)C(=O)NC(C)(C)C(=O)N[C@@H](CCC(N)=O)C(=O)N[C@H](C(=O)N[C@@H](CC(C)C)C(=O)N[C@@H](CCC(=O)O)C(=O)N[C@@H](CCC(N)=O)C(=O)N[C@H](C(N)=O)C(C)C)[C@@H](C)CC)[C@@H](C)CC)[C@@H](C)CC)C(C)C)C(C)C
# B4: SEQ ID NO 5 (peptide)
# peptide: [NMeI]VLSLD[dV]PIKLK([γGlu-C16 diacid])QILLKQERQKKQREQAEKNKQILEQV-NH2
# modifications: N-terminus assumed
# SMILES: CC[C@H](C)[C@H](NC)C(=O)N[C@H](C(=O)N[C@@H](CC(C)C)C(=O)N[C@@H](CO)C(=O)N[C@@H](CC(C)C)C(=O)N[C@@H](CC(=O)O)C(=O)N[C@@H](C(=O)N1CCC[C@H]1C(=O)N[C@H](C(=O)N[C@@H](CCCCN)C(=O)N[C@@H](CC(C)C)C(=O)N[C@@H](CCCCNC(=O)CC[C@H](NC(=O)CCCCCCCCCCCCCCC(=O)O)C(=O)O)C(=O)N[C@@H](CCC(N)=O)C(=O)N[C@H](C(=O)N[C@@H](CC(C)C)C(=O)N[C@@H](CC(C)C)C(=O)N[C@@H](CCCCN)C(=O)N[C@@H](CCC(N)=O)C(=O)N[C@@H](CCC(=O)O)C(=O)N[C@@H](CCCNC(=N)N)C(=O)N[C@@H](CCC(N)=O)C(=O)N[C@@H](CCCCN)C(=O)N[C@@H](CCCCN)C(=O)N[C@@H](CCC(N)=O)C(=O)N[C@@H](CCCNC(=N)N)C(=O)N[C@@H](CCC(=O)O)C(=O)N[C@@H](CCC(N)=O)C(=O)N[C@@H](C)C(=O)N[C@@H](CCC(=O)O)C(=O)N[C@@H](CCCCN)C(=O)N[C@@H](CC(N)=O)C(=O)N[C@@H](CCCCN)C(=O)N[C@@H](CCC(N)=O)C(=O)N[C@H](C(=O)N[C@@H](CC(C)C)C(=O)N[C@@H](CCC(=O)O)C(=O)N[C@@H](CCC(N)=O)C(=O)N[C@H](C(N)=O)C(C)C)[C@@H](C)CC)[C@@H](C)CC)[C@@H](C)CC)C(C)C)C(C)C
# Target: T1, CRF1R receptor
# Assay: cell-based or functional assay
Emax (% I),EC50,Binder
1%,–,B1
5%,> 250 nM,B2
14%,> 250 nM,B3
48%,158 nM,B4

# Target: human corticotropin-releasing factor 2a (CRF2a receptor) (human), Q13324
# Sequence (Q13324 20-411): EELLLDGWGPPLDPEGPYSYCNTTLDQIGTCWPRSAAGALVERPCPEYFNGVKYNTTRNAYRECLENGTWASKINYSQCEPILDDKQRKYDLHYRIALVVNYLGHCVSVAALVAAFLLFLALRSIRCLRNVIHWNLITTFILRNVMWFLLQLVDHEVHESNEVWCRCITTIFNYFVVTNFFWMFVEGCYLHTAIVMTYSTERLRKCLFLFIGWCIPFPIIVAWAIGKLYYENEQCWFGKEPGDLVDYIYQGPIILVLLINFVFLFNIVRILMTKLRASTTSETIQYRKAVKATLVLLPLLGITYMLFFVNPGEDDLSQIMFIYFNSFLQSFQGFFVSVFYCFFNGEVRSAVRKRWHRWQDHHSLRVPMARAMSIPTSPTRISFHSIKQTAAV
# Assay: cell-based or functional assay
row,EC50 [nM] (cAMP),Binder
1,3.08 nM,B1
2,1.04 nM,B2
3,0.23 nM,B3
4,0.09 nM,B4
